Experimental data as given in the supplement of paper PMC10065799, “High-throughput profiling of sequence recognition by tyrosine kinases and SH2 domains using bacterial peptide display” (eLife, 2023).

What follows are sequences tested against Hck (UniProt P08631) (assay: phosphorylation enrichment, bacterial display (enrichment ratio); higher = better substrate or ligand; peptides without Tyr show the background).
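Note: 11-residue human phosphosite peptides and single-mutation variants displayed on the E. coli surface, counted by deep sequencing, each peptide's frequency after selection divided by its frequency in the unselected input library; frequency after pTyr selection over input frequency; kinase dosed for 20-30% of maximal phosphorylation in three min.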

Chain of Hck (P08631 whole entry, looked up): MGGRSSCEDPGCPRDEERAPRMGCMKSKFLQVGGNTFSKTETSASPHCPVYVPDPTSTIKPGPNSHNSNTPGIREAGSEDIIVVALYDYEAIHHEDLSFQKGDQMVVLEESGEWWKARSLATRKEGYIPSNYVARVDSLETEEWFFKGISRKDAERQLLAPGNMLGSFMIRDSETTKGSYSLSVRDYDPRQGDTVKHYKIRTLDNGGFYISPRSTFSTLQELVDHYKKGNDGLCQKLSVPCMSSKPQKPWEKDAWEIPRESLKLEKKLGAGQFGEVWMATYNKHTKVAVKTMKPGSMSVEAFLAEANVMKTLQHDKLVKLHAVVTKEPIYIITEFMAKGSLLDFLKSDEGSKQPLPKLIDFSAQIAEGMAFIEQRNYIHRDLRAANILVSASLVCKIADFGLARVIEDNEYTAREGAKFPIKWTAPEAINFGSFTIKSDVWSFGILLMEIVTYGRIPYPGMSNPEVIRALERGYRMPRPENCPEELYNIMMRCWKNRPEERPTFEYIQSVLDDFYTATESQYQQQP

| Sequence | phosphorylation enrichment |
| --- | --- |
| HHIDYYKETTN [FGFR1_Y654_K656E] | 0.799 |
| FTDPFYDFEIE [ZC3H18_Y372_A368T_YF] | 0.823 |
| HSPLRYTSILT [OR51B6_Y130_R125H] | 0.683 |
| IKNSGYISRFL [EIF2AK3_Y585_YF] | 0.379 |
| IKKLIYVHLVI [JAGN1_Y42] | 0.671 |
| FFCKFYNKSED [RYR1_Y4864_R4861C] | 0.552 |
| RLNCIYYKDQT [RS1_Y165_W163C] | 0.889 |
| ASNFNYFFHRE [KCNA1_Y413_V408A_YF] | 0.654 |
| RGRSTYYWPRP [GAGE12J_Y9] | 0.762 |
| EEGNPYYSSAR [MCCC2_Y520] | 1.18 |
| DIPIRYSIMGV [CDH4_Y205_T208M] | 0.352 |
| RQQEDYLLFKQ [RARRES1_Y159_YF] | 1.16 |
| LKGQVDILGRE [ASS1_Y359_Y359D] | 0.575 |
| QDRTFYERVRT [SPEN_Y633_S635R_YF] | 1.2 |
| KKYPDYIQSAM [SGMS2_Y59_I62S] | 0.413 |
| TTASRYLKVSD [MYOM2_Y871_N869S] | 0.311 |
| SYPHEYGSQEG [RBM10_Y48_R46H] | 0.458 |

| Sequence | phosphorylation enrichment |
| --- | --- |
| FAELVYTGFWH [ASS1_Y322] | 6 |
| RALLNYIASKF [GSTA3_Y74_I71L_YF] | 0.721 |
| IHHIDYYKKTT [FGFR1_Y653] | 0.425 |
| MARDIYQASYY [LTK_Y672_R673Q] | 6.75 |
| KFWREYILSLE [GPC3_Y299_YF] | 0.452 |
| KGELCYMHSRV [ABCD1_Y281_R280C] | 0.485 |
| SFMVRYNQPRV [GRIN2D_Y736_YF] | 0.505 |
| EMTAEYTCTRK [ACAD9_Y325_A326T] | 0.699 |
| IFHLSYIHNCE [PDE6B_Y227_L228I_YF] | 0.577 |
| PGAGHYEDTIL [ALK_Y1604] | 0.786 |
| LLKAGYHGVLR [TTPA_Y100] | 0.453 |
| KPRKLYTIKKP [BRD2_Y715_P714L] | 0.452 |
| GHNDVYISKHV [GRIN2A_Y1423_E1426K] | 0.412 |
| VASIFYTLVIP [OR8K3_Y277] | 0.661 |
| SHNELYYEAAE [VANGL1_Y344_E347A] | 1.1 |
| DVRQEYPGMIL [PLXND1_Y616] | 0.497 |

The sequences below were run against Jak2 (UniProt O60674) in the same assay as above.
Chain of Jak2 (O60674 whole entry, looked up): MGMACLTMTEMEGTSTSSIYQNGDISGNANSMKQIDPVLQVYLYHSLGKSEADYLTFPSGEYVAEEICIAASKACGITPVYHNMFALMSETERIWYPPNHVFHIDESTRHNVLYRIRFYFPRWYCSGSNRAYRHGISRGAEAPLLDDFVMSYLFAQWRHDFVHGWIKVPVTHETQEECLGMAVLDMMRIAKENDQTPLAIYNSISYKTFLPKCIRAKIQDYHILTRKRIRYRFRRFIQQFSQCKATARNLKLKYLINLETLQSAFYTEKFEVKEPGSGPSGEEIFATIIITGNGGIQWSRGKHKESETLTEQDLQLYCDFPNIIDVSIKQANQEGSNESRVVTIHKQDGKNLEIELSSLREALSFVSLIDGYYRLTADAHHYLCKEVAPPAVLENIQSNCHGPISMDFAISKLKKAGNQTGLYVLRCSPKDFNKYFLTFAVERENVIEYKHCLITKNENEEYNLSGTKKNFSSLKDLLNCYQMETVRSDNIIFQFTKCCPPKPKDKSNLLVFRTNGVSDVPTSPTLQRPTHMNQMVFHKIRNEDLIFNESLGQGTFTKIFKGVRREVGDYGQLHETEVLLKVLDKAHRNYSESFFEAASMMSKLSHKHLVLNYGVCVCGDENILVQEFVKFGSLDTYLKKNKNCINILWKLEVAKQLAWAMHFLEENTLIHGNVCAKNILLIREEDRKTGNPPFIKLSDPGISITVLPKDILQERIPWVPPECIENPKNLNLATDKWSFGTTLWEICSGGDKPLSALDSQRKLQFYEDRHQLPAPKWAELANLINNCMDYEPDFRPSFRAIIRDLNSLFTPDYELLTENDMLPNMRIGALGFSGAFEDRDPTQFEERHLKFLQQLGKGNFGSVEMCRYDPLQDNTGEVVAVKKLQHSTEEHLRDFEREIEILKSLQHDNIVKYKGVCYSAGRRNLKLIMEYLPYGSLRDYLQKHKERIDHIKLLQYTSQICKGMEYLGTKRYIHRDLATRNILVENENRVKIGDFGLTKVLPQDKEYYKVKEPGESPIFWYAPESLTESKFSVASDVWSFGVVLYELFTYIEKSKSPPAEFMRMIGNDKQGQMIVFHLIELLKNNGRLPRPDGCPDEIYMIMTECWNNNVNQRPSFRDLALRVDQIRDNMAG

| Sequence | phosphorylation enrichment |
| --- | --- |
| HHIDYYKETTN [FGFR1_Y654_K656E] | 0.979 |
| FTDPFYDFEIE [ZC3H18_Y372_A368T_YF] | 1.66 |
| HSPLRYTSILT [OR51B6_Y130_R125H] | 0.807 |
| IKNSGYISRFL [EIF2AK3_Y585_YF] | 0.61 |
| IKKLIYVHLVI [JAGN1_Y42] | 0.982 |
| FFCKFYNKSED [RYR1_Y4864_R4861C] | 1.62 |
| RLNCIYYKDQT [RS1_Y165_W163C] | 1.21 |
| ASNFNYFFHRE [KCNA1_Y413_V408A_YF] | 0.805 |
| RGRSTYYWPRP [GAGE12J_Y9] | 0.715 |
| EEGNPYYSSAR [MCCC2_Y520] | 0.848 |
| DIPIRYSIMGV [CDH4_Y205_T208M] | 1 |
| RQQEDYLLFKQ [RARRES1_Y159_YF] | 1.39 |
| LKGQVDILGRE [ASS1_Y359_Y359D] | 1.26 |
| QDRTFYERVRT [SPEN_Y633_S635R_YF] | 0.509 |
| KKYPDYIQSAM [SGMS2_Y59_I62S] | 0.716 |
| TTASRYLKVSD [MYOM2_Y871_N869S] | 0.434 |
| SYPHEYGSQEG [RBM10_Y48_R46H] | 0.767 |

| Sequence | phosphorylation enrichment |
| --- | --- |
| FAELVYTGFWH [ASS1_Y322] | 1.67 |
| RALLNYIASKF [GSTA3_Y74_I71L_YF] | 0.536 |
| IHHIDYYKKTT [FGFR1_Y653] | 0.534 |
| MARDIYQASYY [LTK_Y672_R673Q] | 0.78 |
| KFWREYILSLE [GPC3_Y299_YF] | 0.997 |
| KGELCYMHSRV [ABCD1_Y281_R280C] | 0.568 |
| SFMVRYNQPRV [GRIN2D_Y736_YF] | 0.685 |
| EMTAEYTCTRK [ACAD9_Y325_A326T] | 0.757 |
| IFHLSYIHNCE [PDE6B_Y227_L228I_YF] | 1.04 |
| PGAGHYEDTIL [ALK_Y1604] | 0.896 |
| LLKAGYHGVLR [TTPA_Y100] | 0.903 |
| KPRKLYTIKKP [BRD2_Y715_P714L] | 0.532 |
| GHNDVYISKHV [GRIN2A_Y1423_E1426K] | 0.391 |
| VASIFYTLVIP [OR8K3_Y277] | 1.45 |
| SHNELYYEAAE [VANGL1_Y344_E347A] | 1.18 |
| DVRQEYPGMIL [PLXND1_Y616] | 0.76 |

Each sequence was assayed against MERTK (UniProt Q12866) in the same assay as above.
Chain of MERTK (Q12866 whole entry, looked up): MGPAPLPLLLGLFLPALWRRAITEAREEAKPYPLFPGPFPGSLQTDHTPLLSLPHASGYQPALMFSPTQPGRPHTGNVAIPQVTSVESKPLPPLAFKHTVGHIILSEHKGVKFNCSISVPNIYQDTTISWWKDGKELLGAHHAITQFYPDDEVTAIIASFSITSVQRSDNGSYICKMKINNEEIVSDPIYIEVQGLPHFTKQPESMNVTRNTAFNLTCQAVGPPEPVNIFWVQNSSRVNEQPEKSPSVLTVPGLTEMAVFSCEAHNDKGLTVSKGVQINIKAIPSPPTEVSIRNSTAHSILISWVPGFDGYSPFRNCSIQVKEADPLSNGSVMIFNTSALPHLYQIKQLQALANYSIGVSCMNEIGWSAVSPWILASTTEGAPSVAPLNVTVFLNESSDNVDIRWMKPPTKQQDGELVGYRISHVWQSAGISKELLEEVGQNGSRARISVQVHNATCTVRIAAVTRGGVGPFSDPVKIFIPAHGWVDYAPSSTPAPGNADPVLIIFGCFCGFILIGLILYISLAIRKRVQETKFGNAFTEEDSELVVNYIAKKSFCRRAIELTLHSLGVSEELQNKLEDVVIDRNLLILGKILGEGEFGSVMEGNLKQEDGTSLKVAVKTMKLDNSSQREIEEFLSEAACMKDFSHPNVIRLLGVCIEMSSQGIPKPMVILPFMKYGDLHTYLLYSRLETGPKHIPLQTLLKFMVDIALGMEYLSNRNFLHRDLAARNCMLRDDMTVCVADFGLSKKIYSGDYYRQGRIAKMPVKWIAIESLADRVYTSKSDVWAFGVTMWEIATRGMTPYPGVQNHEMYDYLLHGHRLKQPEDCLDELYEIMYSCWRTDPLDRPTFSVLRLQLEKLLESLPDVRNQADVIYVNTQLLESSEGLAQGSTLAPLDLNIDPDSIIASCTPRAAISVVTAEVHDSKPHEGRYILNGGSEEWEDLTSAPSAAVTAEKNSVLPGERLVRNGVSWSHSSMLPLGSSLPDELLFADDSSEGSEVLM

| Sequence | phosphorylation enrichment |
| --- | --- |
| HHIDYYKETTN [FGFR1_Y654_K656E] | 0.866 |
| FTDPFYDFEIE [ZC3H18_Y372_A368T_YF] | 0.777 |
| HSPLRYTSILT [OR51B6_Y130_R125H] | 0.634 |
| IKNSGYISRFL [EIF2AK3_Y585_YF] | 0.44 |
| IKKLIYVHLVI [JAGN1_Y42] | 0.569 |
| FFCKFYNKSED [RYR1_Y4864_R4861C] | 0.395 |
| RLNCIYYKDQT [RS1_Y165_W163C] | 1.57 |
| ASNFNYFFHRE [KCNA1_Y413_V408A_YF] | 0.453 |
| RGRSTYYWPRP [GAGE12J_Y9] | 0.98 |
| EEGNPYYSSAR [MCCC2_Y520] | 0.422 |
| DIPIRYSIMGV [CDH4_Y205_T208M] | 0.523 |
| RQQEDYLLFKQ [RARRES1_Y159_YF] | 0.516 |
| LKGQVDILGRE [ASS1_Y359_Y359D] | 0.663 |
| QDRTFYERVRT [SPEN_Y633_S635R_YF] | 0.539 |
| KKYPDYIQSAM [SGMS2_Y59_I62S] | 0.392 |
| TTASRYLKVSD [MYOM2_Y871_N869S] | 0.313 |
| SYPHEYGSQEG [RBM10_Y48_R46H] | 0.465 |

| Sequence | phosphorylation enrichment |
| --- | --- |
| FAELVYTGFWH [ASS1_Y322] | 6.23 |
| RALLNYIASKF [GSTA3_Y74_I71L_YF] | 0.597 |
| IHHIDYYKKTT [FGFR1_Y653] | 0.508 |
| MARDIYQASYY [LTK_Y672_R673Q] | 5.18 |
| KFWREYILSLE [GPC3_Y299_YF] | 0.431 |
| KGELCYMHSRV [ABCD1_Y281_R280C] | 0.563 |
| SFMVRYNQPRV [GRIN2D_Y736_YF] | 0.389 |
| EMTAEYTCTRK [ACAD9_Y325_A326T] | 0.465 |
| IFHLSYIHNCE [PDE6B_Y227_L228I_YF] | 0.392 |
| PGAGHYEDTIL [ALK_Y1604] | 0.597 |
| LLKAGYHGVLR [TTPA_Y100] | 0.631 |
| KPRKLYTIKKP [BRD2_Y715_P714L] | 0.408 |
| GHNDVYISKHV [GRIN2A_Y1423_E1426K] | 0.347 |
| VASIFYTLVIP [OR8K3_Y277] | 5.43 |
| SHNELYYEAAE [VANGL1_Y344_E347A] | 1.9 |
| DVRQEYPGMIL [PLXND1_Y616] | 0.487 |

The sequences below were run on c-Abl (mouse) in the same assay as above.

| Sequence | phosphorylation enrichment |
| --- | --- |
| HHIDYYKETTN [FGFR1_Y654_K656E] | 0.878 |
| FTDPFYDFEIE [ZC3H18_Y372_A368T_YF] | 1.05 |
| HSPLRYTSILT [OR51B6_Y130_R125H] | 0.547 |
| IKNSGYISRFL [EIF2AK3_Y585_YF] | 0.537 |
| IKKLIYVHLVI [JAGN1_Y42] | 0.852 |
| FFCKFYNKSED [RYR1_Y4864_R4861C] | 1.09 |
| RLNCIYYKDQT [RS1_Y165_W163C] | 0.897 |
| ASNFNYFFHRE [KCNA1_Y413_V408A_YF] | 0.571 |
| RGRSTYYWPRP [GAGE12J_Y9] | 0.859 |
| EEGNPYYSSAR [MCCC2_Y520] | 0.679 |
| DIPIRYSIMGV [CDH4_Y205_T208M] | 0.723 |
| RQQEDYLLFKQ [RARRES1_Y159_YF] | 0.924 |
| LKGQVDILGRE [ASS1_Y359_Y359D] | 0.658 |
| QDRTFYERVRT [SPEN_Y633_S635R_YF] | 0.582 |
| KKYPDYIQSAM [SGMS2_Y59_I62S] | 0.595 |
| TTASRYLKVSD [MYOM2_Y871_N869S] | 0.54 |
| SYPHEYGSQEG [RBM10_Y48_R46H] | 0.591 |

| Sequence | phosphorylation enrichment |
| --- | --- |
| FAELVYTGFWH [ASS1_Y322] | 8.78 |
| RALLNYIASKF [GSTA3_Y74_I71L_YF] | 0.638 |
| IHHIDYYKKTT [FGFR1_Y653] | 0.524 |
| MARDIYQASYY [LTK_Y672_R673Q] | 3.09 |
| KFWREYILSLE [GPC3_Y299_YF] | 0.912 |
| KGELCYMHSRV [ABCD1_Y281_R280C] | 0.43 |
| SFMVRYNQPRV [GRIN2D_Y736_YF] | 0.582 |
| EMTAEYTCTRK [ACAD9_Y325_A326T] | 0.636 |
| IFHLSYIHNCE [PDE6B_Y227_L228I_YF] | 0.745 |
| PGAGHYEDTIL [ALK_Y1604] | 0.765 |
| LLKAGYHGVLR [TTPA_Y100] | 0.926 |
| KPRKLYTIKKP [BRD2_Y715_P714L] | 0.456 |
| GHNDVYISKHV [GRIN2A_Y1423_E1426K] | 0.376 |
| VASIFYTLVIP [OR8K3_Y277] | 0.882 |
| SHNELYYEAAE [VANGL1_Y344_E347A] | 0.801 |
| DVRQEYPGMIL [PLXND1_Y616] | 0.669 |
